Assay results reported in patent US20180320200A1.

Molecular target: cell surface of 293 AAV cells (human)
Test: cell binding on ice for 1 h at 200000 TU/cell; unbound particles recovered from the medium and titrated on TG1 E. coli by colony counting; relative to control

| Substance | binding efficiency (percentage of vectors bound to the cell surface) [%] |
| --- | --- |
| M13.PAAV vector (non-targeted phagemid/AAV particle lacking RGD4C) (from UniProt P69168 19-424) | 7.1 |
| RGD.PAAV vector (phagemid/AAV particle displaying the RGD4C targeting peptide on the pIII minor coat protein) | 58.2 |
